This is an account of results in the supplement of paper PMC12042874.

± gives the uncertainty stated by the source.

This series can be described thus: amyloid nucleation score (Sup35N fusion, yeast selection) (log enrichment); library NNK2; higher = more nucleation; inactive = no reads after selection. A digest of the protocol:
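The nucleation score, computed with DiMSum, is the log enrichment of output over input reads, centred on the mode score of non-aggregating sequences. Sequences with under 100 input reads were dropped. Reads were generated by Illumina sequencing of plasmid inserts from psi-negative yeast with Sup35N fused to peptides of 20 random codons, induced with 100 μM copper sulfate for 24 hours and grown 7 days at 30°C on medium lacking adenine and uracil.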
Substance TVGRWH came in with an amyloid nucleation score of -0.939 ± 0.76.

On to TVIIDDTCICFYYIEYMWCE, for which the amyloid nucleation score result was “inactive”.

On to TVLLWD, for which the amyloid nucleation score entry is “inactive”.

TVLPAVCYGVLNSRFRVTME: the amyloid nucleation score result is “inactive”.

The substance TVMCLNLLR displayed an amyloid nucleation score of 6.454 ± 0.026.

For the substance TVMLCSMISYKAVLVTYVGG, the amyloid nucleation score stood at 1.87 ± 0.13.

In the case of TVMYSGVG, the amyloid nucleation score stood at 0.501 ± 0.46.

Substance TVRANLKTRCMSRTTNQEHT returned an amyloid nucleation score of 1.85 ± 0.15.

With TVRFVRFYSPLWLSVTYRLT, the amyloid nucleation score was 0.412 ± 0.55.

Turning to TVRVST, the amyloid nucleation score was -0.004 ± 0.36.

For the substance TVSRIMLGNGKYFKHVL, the amyloid nucleation score was found to be 2.3 ± 0.064.

For TVWCWVDRTMGLEWTYLTA, the amyloid nucleation score came out at 1.1 ± 0.23.

Substance TVYPCMYGGLGHRERHLSMS yielded an amyloid nucleation score of 5.06 ± 0.063.

Regarding TVYSHEKGVQLWFLLIVALL, the amyloid nucleation score came to 0.27 ± 0.48.

With TWFAHQMWCFSILQFITLKS, the amyloid nucleation score stood at 0.867 ± 0.32.

For the substance TWNISILHCI, the amyloid nucleation score worked out at 4.84 ± 0.084.

The substance TWQTLYASSVFFANPVEHPL displayed an amyloid nucleation score of 0.068 ± 0.29.

Substance TWRFYTFLFEVFRRSEILKR gave an amyloid nucleation score of -0.97 ± 1.1.

Turning to TWRLKVVGQRQTFSKFTGLG, the amyloid nucleation score was -0.133 ± 0.35.

TWRYHFADVGSILDLVG displayed an amyloid nucleation score of -0.277 ± 0.4.

For the substance TWSIYAHH, the amyloid nucleation score was 0.952 ± 0.58.

TYGGEV returned an amyloid nucleation score of 0.251 ± 0.31.

Turning to TYIQPVARRKHLA, the amyloid nucleation score was 0.101 ± 0.39.

TYKCLTRATKGRNHVFRFCV had an amyloid nucleation score of 1.08 ± 0.15.

The substance TYKTGDACVLVLPPHMADPR came in with an amyloid nucleation score of -0.446 ± 1.1.

Consider TYLRSPLLLNAVSVNT, for which the amyloid nucleation score is 0.082 ± 0.65.

TYMRGSLSEIGGTLL registered an amyloid nucleation score of 1.06 ± 0.19.

In turn, TYPRDYVVRSEI gave an amyloid nucleation score of 0.74 ± 0.43.

For TYRSEYCICLLLSAFFQMKG, the amyloid nucleation score is -1.08 ± 1.1.

Consider TYVDTVFSGSGCYLLYKGWI, for which the amyloid nucleation score was determined as 0.851 ± 0.57.

Turning to TYVLWSFTKYRPP, the amyloid nucleation score is 1.02 ± 0.66.

Take VAFFWIKFH: the amyloid nucleation score is -0.807 ± 1.

Take VAFGLMDQDIFSRRILTRSS: the amyloid nucleation score result was “inactive”.

VAFNCNIEIISPAGDGETFV had an amyloid nucleation score of -0.489 ± 0.27.

Substance VALRWTIRQWFSDVYPWSWY registered an amyloid nucleation score of 0.802 ± 0.45.

VAQVWLSNVVMYLRRAENLT returned an amyloid nucleation score of 0.214 ± 0.26.

For the substance VARRGALNVRHFFPGKREV, the amyloid nucleation score was determined as 0.608 ± 0.47.

VAVDLRGIDGNIYAFQAKIE: the amyloid nucleation score turned out to be 2.97 ± 0.068.

As to VAWLW, the amyloid nucleation score is 0.909 ± 0.21.

VCACKIYKRHTLGSR: the amyloid nucleation score was -0.573 ± 0.76.

In the case of VCCKLEFVSKHFRCVNGCDE, the amyloid nucleation score stood at 9.264 ± 0.055.

On to VCFYPECVWQSILVLDFHVG, for which the amyloid nucleation score is 3.42 ± 0.079.

VCHAGTWLQSGRTRYSIVRN showed an amyloid nucleation score of 3.51 ± 0.12.

Regarding VCKMSSLNLCKRP, the amyloid nucleation score was -0.133 ± 1.

Take VCNFLYNGLEFVNLECFWR: the amyloid nucleation score entry was “inactive”.

As to VCQVFVNGVSSDRVAVLVVI, the amyloid nucleation score was 5.25 ± 0.059.

Turning to VCRLFLYGQWLVGRRANSYS, the amyloid nucleation score is -0.731 ± 0.39.

As for VCSFVCNLCSLCEIEFWLIA, the amyloid nucleation score came out at 0.521 ± 0.26.

As to VCTNFWELMVWAQQLLFCKL, the amyloid nucleation score entry is “inactive”.

VCVRTTWRKDGSISCTHKSP: the amyloid nucleation score was 0.5 ± 0.18.

In turn, VDAFLWHVDVHMFIEVGVRW had an amyloid nucleation score of -0.024 ± 0.65.

Consider VDARALDMIVVRDQTFRCTM, for which the amyloid nucleation score came out at 1.24 ± 0.33.

VDHYTETTRL displayed an amyloid nucleation score of 0.493 ± 0.24.

Take VDIFMFKAAHIRAKGNVVGL: the amyloid nucleation score is -0.429 ± 0.45.

VDKLGKLEVYSWLYWV displayed an amyloid nucleation score of -1.86 ± 0.55.

Substance VDLYQVWSSCPVFVLWGYSC showed an amyloid nucleation score of 0.072 ± 0.79.

VDMTGCLTGVDVTSLRNIPL: the amyloid nucleation score amounted to 0.931 ± 0.38.
